Data on 5 molecules can be found in patent US12247238B2, “Mogroside biocatalysis methods and products” (The Coca-Cola Company, priority 2019, dated 2025).

The nature of the assay: β-galactosidase ONPG activity assay. It is filed as biochemical. Particulars: oNPG substrate, over 30 minutes. As to the method:
Standard β-galactosidase assays were performed at room temperature using o-nitrophenyl-β-D-galactopyranoside (ONPG, Sigma) as a substrate in […] with detection of o-nitrophenol release at 420 nm (UV-Spectra Max Spectrophotometer, Molecular Devices, USA). A typical reaction contained 50 mM sodium citrate buffer pH 5.6, 10 mM magnesium chloride and 100 mM potassium chloride with 2 mM ONPG and the desired amount of enzyme (usually […]). Partially purified AoBG (Sigma G5160, USA) was used as a positive control at a final concentration of 1 U mL−1. Vmax was calculated using the SpectraMax Plus software (Molecular Devices, USA) and when required kinetics were determined by varying the concentration of substrate and kinetic determinants calculated using Hyper™ (J. S. Easterby, Liverpool University).
Cells expressing enzyme variants grown in buffered minimal medium were induced for 72 hr with 1% methanol (refreshed every 24 hr), the culture supernatant harvested and assayed for standard ONPG activity over 30 minutes and mogroside V activity at pH 5.6, 37° C. for 72 hrs. The resultant activity data (Table 2) identified E200 and D258 as the likely catalytic pair for acid/base and nucleophilic attack of mogroside V by the A. oryzae β-glucosidase enzyme.

B1: E200A: A. oryzae β-galactosidase variant, E200A (protein, UniProt Q2UCU3 19-1005, looked up, variant E200A)
Beta-galactosidase A: ASIKHRLNGFTILEHPDPAKRDLLQDIVTWDDKSLFINGERIMLFSGEVHPFRLPVPSLWLDIFHKIRALGFNCVSFYIDWALLEGKPGDYRAEGIFALEPFFDAAKEAGIYLIARPGSYINAEVSGGGFPGWLQRVNGTLRSSDEPFLKATDNYIANAAAAVAKAQITNGGPVILYQPENAYSGGCCGVKYPDADYMQYVMDQARKADIVVPFISNDASPSGHNAPGSGTGAVDIYGHDSYPLGFDCANPSVWPEGKLPDNFRTLHLEQSPSTPYSLLEFQAGAFDPWGGPGFEKCYALVNHEFSRVFYRNDLSFGVSTFNLYMTFGGTNWGNLGHPGGYTSYDYGSPITETRNVTREKYSDIKLLANFVKASPSYLTATPRNLTTGVYTDTSDLAVTPLIGDSPGSFFVVRHTDYSSQESTSYKLKLPTSAGNLTIPQLEGTLSLNGRDSKIHVVDYNVSGTNIIYSTAEVFTWKKFDGNKVLVLYGGPKEHHELAIASKSNVTIIEGSDSGIVSTRKGSSVIIGWDVSSTRRIVQVGDLRVFLLDRNSAYNYWVPELPTEGTSPGFSTSKTTASSIIVKAGYLLRGAHLDGADLHLTADFNATTPIEVIGAPTGAKNLFVNGEKASHTVDKNGIWSSEVKYAAPEIKLPGLKDLDWKYLDTLPEIKSSYDDSAWVSADLPKTKNTHRPLDTPTSLYSSDYGFHTGYLIYRGHFVANGKESEFFIRTQGGSAFGSSVWLNETYLGSWTGADYAMDGNSTYKLSQLESGKNYVITVVIDNLGLDENWTVGEETMKNPRGILSYKLSGQDASAITWKLTGNLGGEDYQDKVRGPLNEGGLYAERQGFHQPQPPSESWESGSPLEGLSKPGIGFYTAQFDLDLPKGWDVPLYFNFGNNTQAARAQLYVNGYQYGKFTGNVGPQTSFPVPEGILNYRGTNYVALSLWALESDGAKLGSFELSYTTPVLTGYGNVESPEQPKYEQRKGAY
B1: the oNPG result is listed as “INACTIVE”.

B2: D258Q: A. oryzae β-galactosidase variant, D258Q (protein, UniProt Q2UCU3 19-1005, looked up, variant D258Q)
Beta-galactosidase A: ASIKHRLNGFTILEHPDPAKRDLLQDIVTWDDKSLFINGERIMLFSGEVHPFRLPVPSLWLDIFHKIRALGFNCVSFYIDWALLEGKPGDYRAEGIFALEPFFDAAKEAGIYLIARPGSYINAEVSGGGFPGWLQRVNGTLRSSDEPFLKATDNYIANAAAAVAKAQITNGGPVILYQPENEYSGGCCGVKYPDADYMQYVMDQARKADIVVPFISNDASPSGHNAPGSGTGAVDIYGHQSYPLGFDCANPSVWPEGKLPDNFRTLHLEQSPSTPYSLLEFQAGAFDPWGGPGFEKCYALVNHEFSRVFYRNDLSFGVSTFNLYMTFGGTNWGNLGHPGGYTSYDYGSPITETRNVTREKYSDIKLLANFVKASPSYLTATPRNLTTGVYTDTSDLAVTPLIGDSPGSFFVVRHTDYSSQESTSYKLKLPTSAGNLTIPQLEGTLSLNGRDSKIHVVDYNVSGTNIIYSTAEVFTWKKFDGNKVLVLYGGPKEHHELAIASKSNVTIIEGSDSGIVSTRKGSSVIIGWDVSSTRRIVQVGDLRVFLLDRNSAYNYWVPELPTEGTSPGFSTSKTTASSIIVKAGYLLRGAHLDGADLHLTADFNATTPIEVIGAPTGAKNLFVNGEKASHTVDKNGIWSSEVKYAAPEIKLPGLKDLDWKYLDTLPEIKSSYDDSAWVSADLPKTKNTHRPLDTPTSLYSSDYGFHTGYLIYRGHFVANGKESEFFIRTQGGSAFGSSVWLNETYLGSWTGADYAMDGNSTYKLSQLESGKNYVITVVIDNLGLDENWTVGEETMKNPRGILSYKLSGQDASAITWKLTGNLGGEDYQDKVRGPLNEGGLYAERQGFHQPQPPSESWESGSPLEGLSKPGIGFYTAQFDLDLPKGWDVPLYFNFGNNTQAARAQLYVNGYQYGKFTGNVGPQTSFPVPEGILNYRGTNYVALSLWALESDGAKLGSFELSYTTPVLTGYGNVESPEQPKYEQRKGAY
Take B2: the oNPG result is “INACTIVE”.

B3: D258A: A. oryzae β-galactosidase variant, D258A (protein, UniProt Q2UCU3 19-1005, looked up, variant D258A)
Beta-galactosidase A: ASIKHRLNGFTILEHPDPAKRDLLQDIVTWDDKSLFINGERIMLFSGEVHPFRLPVPSLWLDIFHKIRALGFNCVSFYIDWALLEGKPGDYRAEGIFALEPFFDAAKEAGIYLIARPGSYINAEVSGGGFPGWLQRVNGTLRSSDEPFLKATDNYIANAAAAVAKAQITNGGPVILYQPENEYSGGCCGVKYPDADYMQYVMDQARKADIVVPFISNDASPSGHNAPGSGTGAVDIYGHASYPLGFDCANPSVWPEGKLPDNFRTLHLEQSPSTPYSLLEFQAGAFDPWGGPGFEKCYALVNHEFSRVFYRNDLSFGVSTFNLYMTFGGTNWGNLGHPGGYTSYDYGSPITETRNVTREKYSDIKLLANFVKASPSYLTATPRNLTTGVYTDTSDLAVTPLIGDSPGSFFVVRHTDYSSQESTSYKLKLPTSAGNLTIPQLEGTLSLNGRDSKIHVVDYNVSGTNIIYSTAEVFTWKKFDGNKVLVLYGGPKEHHELAIASKSNVTIIEGSDSGIVSTRKGSSVIIGWDVSSTRRIVQVGDLRVFLLDRNSAYNYWVPELPTEGTSPGFSTSKTTASSIIVKAGYLLRGAHLDGADLHLTADFNATTPIEVIGAPTGAKNLFVNGEKASHTVDKNGIWSSEVKYAAPEIKLPGLKDLDWKYLDTLPEIKSSYDDSAWVSADLPKTKNTHRPLDTPTSLYSSDYGFHTGYLIYRGHFVANGKESEFFIRTQGGSAFGSSVWLNETYLGSWTGADYAMDGNSTYKLSQLESGKNYVITVVIDNLGLDENWTVGEETMKNPRGILSYKLSGQDASAITWKLTGNLGGEDYQDKVRGPLNEGGLYAERQGFHQPQPPSESWESGSPLEGLSKPGIGFYTAQFDLDLPKGWDVPLYFNFGNNTQAARAQLYVNGYQYGKFTGNVGPQTSFPVPEGILNYRGTNYVALSLWALESDGAKLGSFELSYTTPVLTGYGNVESPEQPKYEQRKGAY
In the case of B3, the oNPG result was “INACTIVE”.

B4: E200A; E298A: A. oryzae β-galactosidase double variant E200A, E298A (protein, UniProt Q2UCU3 19-1005, looked up, variant E200A E298A)
Beta-galactosidase A: ASIKHRLNGFTILEHPDPAKRDLLQDIVTWDDKSLFINGERIMLFSGEVHPFRLPVPSLWLDIFHKIRALGFNCVSFYIDWALLEGKPGDYRAEGIFALEPFFDAAKEAGIYLIARPGSYINAEVSGGGFPGWLQRVNGTLRSSDEPFLKATDNYIANAAAAVAKAQITNGGPVILYQPENAYSGGCCGVKYPDADYMQYVMDQARKADIVVPFISNDASPSGHNAPGSGTGAVDIYGHDSYPLGFDCANPSVWPEGKLPDNFRTLHLEQSPSTPYSLLAFQAGAFDPWGGPGFEKCYALVNHEFSRVFYRNDLSFGVSTFNLYMTFGGTNWGNLGHPGGYTSYDYGSPITETRNVTREKYSDIKLLANFVKASPSYLTATPRNLTTGVYTDTSDLAVTPLIGDSPGSFFVVRHTDYSSQESTSYKLKLPTSAGNLTIPQLEGTLSLNGRDSKIHVVDYNVSGTNIIYSTAEVFTWKKFDGNKVLVLYGGPKEHHELAIASKSNVTIIEGSDSGIVSTRKGSSVIIGWDVSSTRRIVQVGDLRVFLLDRNSAYNYWVPELPTEGTSPGFSTSKTTASSIIVKAGYLLRGAHLDGADLHLTADFNATTPIEVIGAPTGAKNLFVNGEKASHTVDKNGIWSSEVKYAAPEIKLPGLKDLDWKYLDTLPEIKSSYDDSAWVSADLPKTKNTHRPLDTPTSLYSSDYGFHTGYLIYRGHFVANGKESEFFIRTQGGSAFGSSVWLNETYLGSWTGADYAMDGNSTYKLSQLESGKNYVITVVIDNLGLDENWTVGEETMKNPRGILSYKLSGQDASAITWKLTGNLGGEDYQDKVRGPLNEGGLYAERQGFHQPQPPSESWESGSPLEGLSKPGIGFYTAQFDLDLPKGWDVPLYFNFGNNTQAARAQLYVNGYQYGKFTGNVGPQTSFPVPEGILNYRGTNYVALSLWALESDGAKLGSFELSYTTPVLTGYGNVESPEQPKYEQRKGAY
Turning to B4, the oNPG entry is listed as “INACTIVE”.

B5: E200Q; E298Q: A. oryzae β-galactosidase double variant E200Q, E298Q (protein, UniProt Q2UCU3 19-1005, looked up, variant E200Q E298Q)
Beta-galactosidase A: ASIKHRLNGFTILEHPDPAKRDLLQDIVTWDDKSLFINGERIMLFSGEVHPFRLPVPSLWLDIFHKIRALGFNCVSFYIDWALLEGKPGDYRAEGIFALEPFFDAAKEAGIYLIARPGSYINAEVSGGGFPGWLQRVNGTLRSSDEPFLKATDNYIANAAAAVAKAQITNGGPVILYQPENQYSGGCCGVKYPDADYMQYVMDQARKADIVVPFISNDASPSGHNAPGSGTGAVDIYGHDSYPLGFDCANPSVWPEGKLPDNFRTLHLEQSPSTPYSLLQFQAGAFDPWGGPGFEKCYALVNHEFSRVFYRNDLSFGVSTFNLYMTFGGTNWGNLGHPGGYTSYDYGSPITETRNVTREKYSDIKLLANFVKASPSYLTATPRNLTTGVYTDTSDLAVTPLIGDSPGSFFVVRHTDYSSQESTSYKLKLPTSAGNLTIPQLEGTLSLNGRDSKIHVVDYNVSGTNIIYSTAEVFTWKKFDGNKVLVLYGGPKEHHELAIASKSNVTIIEGSDSGIVSTRKGSSVIIGWDVSSTRRIVQVGDLRVFLLDRNSAYNYWVPELPTEGTSPGFSTSKTTASSIIVKAGYLLRGAHLDGADLHLTADFNATTPIEVIGAPTGAKNLFVNGEKASHTVDKNGIWSSEVKYAAPEIKLPGLKDLDWKYLDTLPEIKSSYDDSAWVSADLPKTKNTHRPLDTPTSLYSSDYGFHTGYLIYRGHFVANGKESEFFIRTQGGSAFGSSVWLNETYLGSWTGADYAMDGNSTYKLSQLESGKNYVITVVIDNLGLDENWTVGEETMKNPRGILSYKLSGQDASAITWKLTGNLGGEDYQDKVRGPLNEGGLYAERQGFHQPQPPSESWESGSPLEGLSKPGIGFYTAQFDLDLPKGWDVPLYFNFGNNTQAARAQLYVNGYQYGKFTGNVGPQTSFPVPEGILNYRGTNYVALSLWALESDGAKLGSFELSYTTPVLTGYGNVESPEQPKYEQRKGAY
For B5, the oNPG entry is listed as “INACTIVE”.
